{
  "source": "patent US20200048345A1",
  "about": "(INNATE PHARMA, published 2020)",
  "binders": {"B1": {"name": "CD19-F9A-NKp46-3 (bispecific antibody, human IgG1, kappa)", "chain 1": "not shown", "chain 2": "DIVMTQSPATLSVTPGDRVSLSCRASQSISDYLHWYQQKSHESPRLLIKYASQSISGIPSRFSGSGSGSDFTLSINSVEPEDVGVYYCQNGHSFPLTFGAGTKLELKASTKGPSVFPLAPSSKSTSGGTAALGCLVKDYFPEPVTVSWNSGALTSGVHTFPAVLQSSGLYSLSSVVTVPSSSLGTQTYICNVNHKPSNTKVDKRVEPKSCDKTH", "chain 3": "not shown", "notes": "Heterotrimer, monomeric Fc with tandem CH3, N297S, wild-type hinge cysteines"}},
  "key": {"[1]": {"target": "T1, Human NKp46 recombinant protein (human, UniProt O76036 22-258, limits assumed)", "T1 construct": "Soluble analyte in SPR; also called recombinant human NKp46 proteins", "T1 sequence (O76036 22-258 limits assumed)": "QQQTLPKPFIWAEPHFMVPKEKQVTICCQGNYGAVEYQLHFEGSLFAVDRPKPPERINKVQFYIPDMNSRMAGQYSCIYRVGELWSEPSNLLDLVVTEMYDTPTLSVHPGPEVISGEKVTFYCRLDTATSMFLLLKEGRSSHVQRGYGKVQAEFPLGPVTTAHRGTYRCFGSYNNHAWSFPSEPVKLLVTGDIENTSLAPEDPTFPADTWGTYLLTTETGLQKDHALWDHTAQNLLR", "assay": "SPR (Biacore T100), captured on Protein-A chip, recombinant human NKp46 6.25-400 nM, 1:1 kinetic model", "method": "SPR measurements were performed on a Biacore T100 apparatus (Biacore GE Healthcare) at 25° C. In all Biacore experiments HBS-EP+ (Biacore GE Healthcare) and NaOH 10 mM served as running buffer and regeneration buffer respectively. Sensorgrams were analyzed with Biacore T100 Evaluation software. Protein-A was purchased from (GE Healthcare). Human NKp46 recombinant proteins were cloned, produced and purified at Innate Pharma.\nProtein-A proteins were immobilized covalently to carboxyl groups in the dextran layer on a Sensor Chip CMS. The chip surface was activated with EDC/NHS (N-ethyl-N′-(3-dimethylaminopropyl) carbodiimidehydrochloride and N-hydroxysuccinimide (Biacore GE Healthcare)). Protein-A was diluted to 10 μg/ml in coupling buffer (10 mM acetate, pH 5.6) and injected until the appropriate immobilization level was reached (i.e. 2000 RU). Deactivation of the remaining activated groups was performed using 100 mM ethanolamine pH 8 (Biacore GE Healthcare).\nMonovalent affinity study was conducted following a regular Capture-Kinetic protocol recommended by the manufacturer (Biacore GE Healthcare kinetic wizard). Seven serial dilutions of human NKp46 recombinant proteins, ranging from 6.25 to 400 nM were sequentially injected over the captured Bi-Specific antibodies and allowed to dissociate for 10 min before regeneration. The entire sensorgram sets were fitted using the 1:1 kinetic binding model."}, "human FcRn": {"target": "T2, human FcRn (human, UniProt P55899 24-297; P61769 21-119, limits assumed)", "T2 construct": "also called recombinant FcRn proteins", "T2 sequence (P55899 24-297 limits assumed, chain 1 of 2)": "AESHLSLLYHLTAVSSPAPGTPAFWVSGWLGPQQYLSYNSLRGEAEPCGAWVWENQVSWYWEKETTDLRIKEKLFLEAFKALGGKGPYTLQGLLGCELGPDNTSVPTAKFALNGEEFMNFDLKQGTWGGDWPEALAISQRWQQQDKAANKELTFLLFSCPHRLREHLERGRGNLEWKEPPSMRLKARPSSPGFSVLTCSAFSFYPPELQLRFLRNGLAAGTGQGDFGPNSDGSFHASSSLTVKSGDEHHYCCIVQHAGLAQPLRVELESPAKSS", "T2 sequence (P61769 21-119 limits assumed, chain 2 of 2)": "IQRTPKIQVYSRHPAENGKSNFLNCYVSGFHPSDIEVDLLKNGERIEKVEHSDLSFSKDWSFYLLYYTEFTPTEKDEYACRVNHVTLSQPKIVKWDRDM", "assay": "SPR, recombinant human FcRn immobilized on chip; Steady State"}},
  "data": [
    {"binder": "B1", "values": [
      {"measurement": "Kd", "setting": "[1]", "value": 32, "unit": "nM"},
      {"measurement": "koff", "setting": "[1]", "value": 0.00669, "unit": "s⁻¹"},
      {"measurement": "kon", "setting": "[1]", "value": 207000, "unit": "M⁻¹ s⁻¹"},
      {"measurement": "Kd", "setting": "human FcRn", "value": 858, "unit": "nM"}
    ]}
  ]
}
